Conditions: Hordeum vulgare, MES 450 mM, reversible: yes, whole UniProt chain shown; for Tm / unfolding enthalpy (calorimetric) / unfolding enthalpy (van 't Hoff): Thermal, DSC
[1] = pH 6.3, 25 °C, GdnHCl, Fluorescence

B1: Subtilisin-chymotrypsin inhibitor-2A wild type, P01053 (protein)
chain: MSSVEKKPEGVNTGAGDRHNLKTEWPELVGKSVEEAKKVILQDKPEAQIIVLPVGTIVTMEYRIDRVRLFVDKLDNIAQVPRVG
- Tm (pH 3): 64 °C
- unfolding enthalpy (calorimetric) (pH 3): 61 kcal/mol
- unfolding enthalpy (van 't Hoff) (pH 3): 61.2 kcal/mol
- Tm (pH 3.5): 73.8 °C
- unfolding enthalpy (calorimetric) (pH 3.5): 67 kcal/mol
- unfolding enthalpy (van 't Hoff) (pH 3.5): 66.9 kcal/mol
- denaturant m value [1]: 1.89 kcal/mol/M
- denaturant midpoint (higher = more stable) [1]: 3.99 M
- unfolding free energy [1]: 7.53 kcal/mol
